Reference: the supplement of paper PMC9170038

System: K4 kissing-loop RNA reporter
Assay: apparent KD of K4 kissing-loop reporter; higher = weaker reporter binding
Settings: Eterna round: R107; input ligand: arginine 13.2 mM
Protocol: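 RNA-MaP round R107: designed RNA switches with theophylline, tryptophan, arginine or FMN aptamers are transcribed on-chip within common flanks. They are titrated with a labelled K4 kissing-loop RNA reporter in RNA-MaP buffer (100 mM Tris pH 7.5, 80 mM KCl, 4 mM MgCl2), without ligand or with the indicated ligand. Median apparent KD per design.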
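Further: bound reporter read as fluorescence of individual clusters on recovered sequencing chips by microscopy, with normalized cluster intensities fitted with a binding model.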

Sequence | apparent KD of K4 kissing-loop reporter [nM]
AUAUAUAACUGAAGGAGCGAGGCCAAAUAUAUAUAGUGAUGUUAUAUAAAGGCACAUAGGCCUCAGGUAGGUCGCAGAAUAAUAU [AstrosExyArGB#1] | 274
CAUUGUACACGGUGCGAAGACCCAAUGGAUACCAGCAAUACAUUAUGCCCUUGGCAGCCAAGAGUGAUGUUCGACGGACUAGAUU [theeternabot_sameState_KL_Theo_A_4] | 175
CAAGUCGAAAAGUGAUGUUUUUCAUACGAUACCAGCAACCAGACAUGCCCUUGGCAGCGUCCAUUACGUUUCUGAGCCCGUACAG [theeternabot_exclusion_KL_Theo_A_40] | 336
AGUGUUGUUUUUUUUAAGAGUGAUGUUUUUCGAGGACCGGUACGGCCGCCACUCGAGUGAUGAGUGAGGUGUGGUGAUGAUUAGU [#10 K4 Tryptophan A Exclusion] | 790
GGGAUGAUGUCGGCCGCCACUGACUGUGUCCAGUGAUGUUGGGAGUGUACGGAAGUUCCAUAUAUCAGGACCGGGACCUCGCUCC [theeternabot_sameState_KL_Trp_B_44] | 487
AAAGAUCUUCUAGAAACUAGAAGAUCAAGAGAGGAUAUCCGAAUUCGGAGAAGGCUCGCUAAGUGAUGUUUGGACCCAAAGGGAA [AK3.1 SS FMN A] | 984
UGAUUGAACUGAAGGAGCGGCAAGAGAGAAGGAAAUAUAGUGAUGUUAUAUAAGAGAGAGAGCCAGGUAGGUCGCAGAGGGAGGA [ExArgB.D] | 113
GCGCGGCUCAGUGAUGUUGAGCCUCGGAGACGAGGACCGGUACGGCCGCCACUCGUCCGCGCAGCUGAGGCAAAAGCCUCGGCAA [Omei KL Tryp A SS B v3] | 195
GGUUCUCUGUUAGGAUAUAGAUUAGAGUGAUGUUCUAACGGCCCGGGCCCGAAAGGGCCCGGGCCGCUAGAAGGAACGGAGUUGG [#2 Same State - FMN A Attempt #1 (HarryS)] | 149
AAACGUUGGUGCGAUACCAGCUGAUCGGAAACGAUCUUGCUGGAGUGAUGUUCCAGGAAAAGCCCUUGGCAGCGCACCGACGAAA [MAT - Same State Theophlline B - Mod of Eli - D26] | 659
AAAAUAAAUCAGUGAUGUUGGUAUCUGGAUACCAGCGAUAAUCAUCGCCCUUGGCAGCCAUGGACGUACAAAAUAAGUACGUCCU [MatMod 17 - Jieux - Same State - Theophylline A] | 157
CAACGAGUGAUGGUCGUUGACGGCCAUCCCGAGGAUAUGGGAUUAUCCAGAAGGCGGGAUCGCCGGGAGUGAUGUUCCCUGAUCA [Same State FMN A GF 14] | 181
AGAGAUAUAUGAGGAUAUGAGAUAGUUAAUGAGUGAGUUUUAGUGUUGUUUGGUUAGUGAUGUUAUUUAGAAGGCGUGAGUGAUG [grrfullin] | 66.5
AAUUCUUAUCUUAGUAGAUUUCUAAUUAAACGAGGACCGGUACGGCCGCCACUCGGUUAUGAGUGAUGUUCAUGGAAUUACAUAA [JR_SSTryptoA_Sub018] | 486
GGCAUAUGGGCAGGAUAUAGGCAGGUAGAGUGAUGUUCUUUCUGAAUAAUUCCAUCCUUCUACCUACUAGAAGGGCCCAUAUGCC | 106
GGAUAGGACAUAGGAUAUGGGCUAGGCAAGAAUAACUUGUCUAGCAAAUCCAUGAGGAGUGAUGUUCCAGAAGGAUGUCCUAUCG [FmnBX 1 U11+A75] | 108
CGAACCUCCAAAGGAUAUCUCGUUUAGUGAUGUUUUGCGUAGUAUCAGGAUAGAAUAUUGAUUCAGAGAGAAGGUUGACGUUGGU [theeternabot_exclusion_KL_FMN_B_14] | 428
CCAUCGCUAUUCGAUACCAGCUACUUAGUGAUGUUAAGUUAAAAUCCAUUGUAGAUGGAAAGCCCUUGGCAGCGAAUAGUGAUGG [Theophylline B K4 22] | 398
GCCGUAGAUUGAAGGAGCGGGCCGUAGUGAUGUUACGCCAAAUUAUCCUUUCUUGAGGUGGUCCAGGUAGGUCGCAAUCUACGGC | 144
UACUUAUUUUUUAACUUAAAUUUUUCAGAAGGAGCGUGAUCAUUCACAGGUAGGUCGCUGAACUAGUGAUGUUAGUUUUAAUUUU [JR_Nu_ExcArginiA_Sub024] | 115
AAUUAAUACAGAAGGAGCGUGUAUUUAACUACAAUUAUCUUAGCGAGUGAUGUUCGUUUUACACAGGUAGGUCGCUGUAUAUUUA [JR_ExcArginiB_Sub010] | 279
UUAGAGAUCUCAGGAUAUCAGUGAUGUUGGUUUCCAGAUCUGAGAUAGAAUUCUAUCUCAGAUCAAUGAGAAGGGAGAUCUCAUU [AK4.1 Exc FMN B] | 128
CUAUCGGUGCCAGUGAUGUUGGUACCGCCACGAGGACCGGUACGGCCGCCACUCGCAUUAGAUGAUCACACAGUGUAUACUGCUA [Aleusorza] | 128
AGGCACGAGCAAGGAUAUCGAGUAGAGUGAUGUUCUGCCUGGGUUGGCUCGCAAGGGCCUUCCCAGCGAGAAGGUGCUCGUGCCU [#2 Same State - FMN A Attempt #17 (HarryS)] | 743

Same assay, conditions: Eterna round: R107; input ligand: none

Sequence | apparent KD of K4 kissing-loop reporter [nM]
CACUCGGUAUCAGAUACCAGACUAUCGAUACCGAGUGUAUCGGGUAGUGAUGUUACCAUAGUCCCUUGGCAGCUGAUAUUGCAUA [Theo B SS t9b] | 71.7
AGUGUGCAAAAGCACACUCAGAACAAGGACAAGGAUAUCUACUAAUAGAGAAGGUGUCCUUUCCUUAGUGAUGUUAAGGAACUGA [Omei KL FMN A SS D v5] | 640
CGUAGAUACUGAGGAUAUCAGAAAUCUGAUAUCAUCAGAGGUCUGAGUGAUGUUCAGAUGCGACUCUGAGAAGGCAGUAGGAGUC [FMN B Ex t2] | 131
UCCAGCAGUACUGAUACCAGACUGCAUGUAGUGAUGUUGCAUAAGGGCAUAGAUGUCUCAGUCCCUUGGCAGCGGUACUGUUGCA [#09 K4 Theophylline B Same State] | 325
UUCCGGGCCGAAGGAUAUUGGAGUGAUGUUUCAAGACGUUCGUCCCAGCCCAUAGUAACUAUCGCCCAAGAAGGUCGUAUUGAAU [theeternabot_exclusion_KL_FMN_B_13] | 243
GCGCGUCAUGUCAGCGGUGACUAUGUCGAUACCAGCGCCGCAAGGCGCCCUUGGCAGCGACGCGCUGGAGUGAUGUUCCGACGGC [#2 Exclusion - Theophylline A Attempt #9 (HarryS)] | 148
CGCUGGAGUGAUGUUCCAGCUUCUACGGAUACCAGCCACGCCAGCGGCCCUUGGCAGCCGCAAAUUGCAGUGAUGUUGUGAUGCC [Same State Theophylline A GF 4] | 312
AUAUAUAACUGAAGGAGCGAGGCCAAAUAUAUAUAGUGAUGUUAUAUAAAGGCACAUAGGCCUCAGGUAGGUCGCAGAAUAAUAU [AstrosExyArGB#1] | 277
CAUUGUACACGGUGCGAAGACCCAAUGGAUACCAGCAAUACAUUAUGCCCUUGGCAGCCAAGAGUGAUGUUCGACGGACUAGAUU [theeternabot_sameState_KL_Theo_A_4] | 290
CAAGUCGAAAAGUGAUGUUUUUCAUACGAUACCAGCAACCAGACAUGCCCUUGGCAGCGUCCAUUACGUUUCUGAGCCCGUACAG [theeternabot_exclusion_KL_Theo_A_40] | 389
AGUGUUGUUUUUUUUAAGAGUGAUGUUUUUCGAGGACCGGUACGGCCGCCACUCGAGUGAUGAGUGAGGUGUGGUGAUGAUUAGU [#10 K4 Tryptophan A Exclusion] | 1050
GGGAUGAUGUCGGCCGCCACUGACUGUGUCCAGUGAUGUUGGGAGUGUACGGAAGUUCCAUAUAUCAGGACCGGGACCUCGCUCC [theeternabot_sameState_KL_Trp_B_44] | 938
AAAGAUCUUCUAGAAACUAGAAGAUCAAGAGAGGAUAUCCGAAUUCGGAGAAGGCUCGCUAAGUGAUGUUUGGACCCAAAGGGAA [AK3.1 SS FMN A] | 1180
UGAUUGAACUGAAGGAGCGGCAAGAGAGAAGGAAAUAUAGUGAUGUUAUAUAAGAGAGAGAGCCAGGUAGGUCGCAGAGGGAGGA [ExArgB.D] | 159
GCGCGGCUCAGUGAUGUUGAGCCUCGGAGACGAGGACCGGUACGGCCGCCACUCGUCCGCGCAGCUGAGGCAAAAGCCUCGGCAA [Omei KL Tryp A SS B v3] | 189
